According to patent US20050226876A1:

Experiments:
[1] = biological target: Fcγ receptors on human granulocytes (FcγRII and RIII); assay: FACS on granulocytes from human blood, antibody 10 µg/ml; no antibody: 1.2
[2] = biological target: Fcγ receptors on human monocytes (FcγRI and RII); assay: FACS on monocytes from human blood, antibody 10 µg/ml; no antibody: 8.5
[3] = biological target: Fcγ receptor on human NK cells (FcγRIII) (human) (UniProt P08637); assay: FACS on NK cells from human blood, antibody 10 µg/ml; no antibody: 0.03
[4] = biological target: human complement factor C3 (from human pooled serum) (human) (UniProt P01024); assay: C3 ELISA, antibody coated, human pooled serum; background OD405 0.098
[5] = biological target: human complement factor C1q (human) (UniProt P02745); assay: C1q ELISA, antibody coated; background OD405 0.079
human complement factor C1q (human), sequence (P02745 23-245 limits assumed, chain 1 of 3): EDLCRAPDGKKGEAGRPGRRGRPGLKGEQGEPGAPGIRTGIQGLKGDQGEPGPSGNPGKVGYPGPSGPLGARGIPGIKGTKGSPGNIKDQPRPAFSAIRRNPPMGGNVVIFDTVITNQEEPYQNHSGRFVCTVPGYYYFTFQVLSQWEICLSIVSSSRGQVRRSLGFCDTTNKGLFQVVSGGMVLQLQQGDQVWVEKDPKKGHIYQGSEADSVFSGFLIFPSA
human complement factor C1q (human), sequence (P02746 28-253 limits assumed, chain 2 of 3, further chain): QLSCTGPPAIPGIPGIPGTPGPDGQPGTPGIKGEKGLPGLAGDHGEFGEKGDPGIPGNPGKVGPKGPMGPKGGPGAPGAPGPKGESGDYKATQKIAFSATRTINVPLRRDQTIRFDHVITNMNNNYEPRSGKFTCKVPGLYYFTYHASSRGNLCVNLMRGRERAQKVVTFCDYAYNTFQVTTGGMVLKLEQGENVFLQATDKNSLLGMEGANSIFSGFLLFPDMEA
human complement factor C1q (human), sequence (P02747 29-245 limits assumed, chain 3 of 3, further chain): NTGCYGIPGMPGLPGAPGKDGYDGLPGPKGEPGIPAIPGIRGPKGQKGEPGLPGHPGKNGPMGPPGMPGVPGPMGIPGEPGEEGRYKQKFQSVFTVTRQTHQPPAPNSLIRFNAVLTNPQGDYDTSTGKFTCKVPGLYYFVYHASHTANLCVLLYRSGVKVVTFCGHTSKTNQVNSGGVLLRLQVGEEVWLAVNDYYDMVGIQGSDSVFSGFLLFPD

Fcγ receptor on human NK cells (FcγRIII) (human), sequence (P08637 17-254): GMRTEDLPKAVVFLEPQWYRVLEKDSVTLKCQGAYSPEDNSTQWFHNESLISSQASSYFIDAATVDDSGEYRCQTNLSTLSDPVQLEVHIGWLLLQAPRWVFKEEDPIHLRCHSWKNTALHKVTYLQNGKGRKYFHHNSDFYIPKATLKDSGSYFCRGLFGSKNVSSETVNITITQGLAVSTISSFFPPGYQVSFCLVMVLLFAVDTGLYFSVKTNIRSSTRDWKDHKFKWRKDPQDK
human complement factor C3 (from human pooled serum) (human), sequence (P01024 23-1663 limits assumed): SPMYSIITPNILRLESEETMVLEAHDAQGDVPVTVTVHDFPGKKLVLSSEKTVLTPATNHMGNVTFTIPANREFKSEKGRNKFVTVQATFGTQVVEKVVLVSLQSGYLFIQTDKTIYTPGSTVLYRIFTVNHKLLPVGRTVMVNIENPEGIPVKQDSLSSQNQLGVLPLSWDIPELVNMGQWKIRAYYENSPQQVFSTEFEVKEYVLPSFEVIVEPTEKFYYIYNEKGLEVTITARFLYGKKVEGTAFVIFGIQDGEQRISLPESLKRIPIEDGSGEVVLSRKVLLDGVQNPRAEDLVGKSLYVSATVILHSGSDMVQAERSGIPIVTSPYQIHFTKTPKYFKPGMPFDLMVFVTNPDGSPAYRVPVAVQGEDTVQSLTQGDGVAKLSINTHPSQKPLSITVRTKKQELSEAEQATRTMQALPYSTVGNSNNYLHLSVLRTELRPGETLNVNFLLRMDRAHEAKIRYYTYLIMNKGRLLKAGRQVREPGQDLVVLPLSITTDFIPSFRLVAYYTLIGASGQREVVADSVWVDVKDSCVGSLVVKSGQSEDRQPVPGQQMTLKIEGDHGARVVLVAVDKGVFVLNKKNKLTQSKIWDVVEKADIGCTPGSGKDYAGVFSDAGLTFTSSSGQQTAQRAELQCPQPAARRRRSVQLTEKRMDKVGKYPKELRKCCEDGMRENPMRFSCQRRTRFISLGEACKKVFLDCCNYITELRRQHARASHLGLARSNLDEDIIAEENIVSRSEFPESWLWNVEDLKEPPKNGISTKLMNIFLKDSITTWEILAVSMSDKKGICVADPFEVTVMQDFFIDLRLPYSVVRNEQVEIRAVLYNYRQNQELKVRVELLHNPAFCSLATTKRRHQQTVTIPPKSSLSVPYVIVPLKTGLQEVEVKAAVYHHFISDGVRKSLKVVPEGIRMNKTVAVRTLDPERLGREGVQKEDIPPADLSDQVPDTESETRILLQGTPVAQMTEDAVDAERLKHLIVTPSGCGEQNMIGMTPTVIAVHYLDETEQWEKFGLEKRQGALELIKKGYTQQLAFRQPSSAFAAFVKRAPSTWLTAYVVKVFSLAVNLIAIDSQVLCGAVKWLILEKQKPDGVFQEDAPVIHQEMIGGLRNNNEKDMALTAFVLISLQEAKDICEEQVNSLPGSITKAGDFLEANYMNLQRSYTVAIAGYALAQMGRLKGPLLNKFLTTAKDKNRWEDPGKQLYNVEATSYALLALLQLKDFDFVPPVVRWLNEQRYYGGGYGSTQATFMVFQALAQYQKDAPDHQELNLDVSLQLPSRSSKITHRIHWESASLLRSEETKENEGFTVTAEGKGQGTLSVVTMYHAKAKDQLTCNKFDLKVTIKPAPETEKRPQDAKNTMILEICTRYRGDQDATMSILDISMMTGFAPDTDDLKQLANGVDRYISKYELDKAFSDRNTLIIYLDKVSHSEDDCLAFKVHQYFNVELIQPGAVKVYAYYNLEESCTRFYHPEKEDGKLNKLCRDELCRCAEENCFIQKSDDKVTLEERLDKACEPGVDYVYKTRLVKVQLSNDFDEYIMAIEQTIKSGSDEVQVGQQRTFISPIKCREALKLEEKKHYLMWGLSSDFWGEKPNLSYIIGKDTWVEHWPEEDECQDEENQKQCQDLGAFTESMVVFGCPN

Substance | % granulocytes binding antibody [1] [%] | % monocytes binding antibody [2] [%] | % NK cells binding antibody [3] [%] | Bmax (OD405 at 10 µg/ml) [4] [OD405] | Bmax (OD405 at 10 µg/ml) [5] [OD405]
HuMab 002 Fc variant IgG4v1 (S228P; L235E) (antibody) | 1.6 | 14.5 | – | – | –
human IgG4 (CLB, the Netherlands), negative control (antibody) | – | 9.4 | 0.06 | 0.182 | 0.222
